Test results from US20200407457A1 (YANTAI OBIOADC BIOMEDICAL TECHNOLOGY, published 2020).

B1: Zapadcine-3a (antibody, V domains shown)
VH: QVQLVQSGSELKKPGASVKVSCKASGYTFTDFSMNWVRQAPGQGLEWMGWINTETGEPTYADDFKGRFVFSLDTSVSTAYLQISSLKAEDTAVYYCARIDYWGQGTTVTVSS
VL: DIVMTQSPLSLPVTPGEPASISCRSSQSLVHSNGNTYLHWYLQKPGQSPQLLIYKVSNRFSGVPDRFSGSGSGTDFTLKISRVEAEDVGVYYCFQSTHVPHTFGQGTKLEIKR
modifications: MMAE coupled through linker PY-VC-PAB by thiol bridge coupling, cleavable; positions not given
B2: Zapadcine-3e (antibody, V domains shown)
VH: QVQLVQSGSELKKPGASVKVSCKASGYTFTDFSMNWVRQAPGQGLEWMGWINTETGEPTYADDFKGRFVFSLDTSVSTAYLQISSLKAEDTAVYYCARIDYWGQGTTVTVSS
VL: DIVMTQSPLSLPVTPGEPASISCRSSQSLVHSNGNTYLHWYLQKPGQSPQLLIYKVSNRFSGVPDRFSGSGSGTDFTLKISRVEAEDVGVYYCFQSTHVPHTFGQGTKLEIKR
modifications: MMAF coupled through linker MC by thiol conventional coupling, non-cleavable; positions not given
B3: Zapadcine-3b (antibody, V domains shown)
VH: QVQLVQSGSELKKPGASVKVSCKASGYTFTDFSMNWVRQAPGQGLEWMGWINTETGEPTYADDFKGRFVFSLDTSVSTAYLQISSLKAEDTAVYYCARIDYWGQGTTVTVSS
VL: DIVMTQSPLSLPVTPGEPASISCRSSQSLVHSNGNTYLHWYLQKPGQSPQLLIYKVSNRFSGVPDRFSGSGSGTDFTLKISRVEAEDVGVYYCFQSTHVPHTFGQGTKLEIKR
modifications: MMAE coupled through linker PY-MAA by thiol bridge coupling, non-cleavable; positions not given
B4: Zapadcine-3d (antibody, V domains shown)
VH: QVQLVQSGSELKKPGASVKVSCKASGYTFTDFSMNWVRQAPGQGLEWMGWINTETGEPTYADDFKGRFVFSLDTSVSTAYLQISSLKAEDTAVYYCARIDYWGQGTTVTVSS
VL: DIVMTQSPLSLPVTPGEPASISCRSSQSLVHSNGNTYLHWYLQKPGQSPQLLIYKVSNRFSGVPDRFSGSGSGTDFTLKISRVEAEDVGVYYCFQSTHVPHTFGQGTKLEIKR
modifications: MMAE coupled through linker MC by thiol conventional coupling, non-cleavable; positions not given
B5: Zapadcine-3c (antibody, V domains shown)
VH: QVQLVQSGSELKKPGASVKVSCKASGYTFTDFSMNWVRQAPGQGLEWMGWINTETGEPTYADDFKGRFVFSLDTSVSTAYLQISSLKAEDTAVYYCARIDYWGQGTTVTVSS
VL: DIVMTQSPLSLPVTPGEPASISCRSSQSLVHSNGNTYLHWYLQKPGQSPQLLIYKVSNRFSGVPDRFSGSGSGTDFTLKISRVEAEDVGVYYCFQSTHVPHTFGQGTKLEIKR
modifications: MMAE coupled through linker MC-VC-PAB by thiol conventional coupling, cleavable; positions not given

target: TRAILR2 receptor on the surface of human tumor cells (human, UniProt O14763 56-440); assay: cell-based or functional assay

Going from B1 to B3, the “IC50, cytotoxic effect on A172 cells (CellTiter-Glo, 72 h)” value rises from 0.225 µg/mL to 0.389 µg/mL (1.7-fold).

Compared with B4, B5 is 2.3-fold higher in “IC50, cytotoxic effect on A172 cells (CellTiter-Glo, 72 h)” value: 0.307 µg/mL for the first, 0.703 µg/mL for the second.

First: B1
Second: B2
The “IC50, cytotoxic effect on Jurkat E6-1 cells (CellTiter-Glo, 72 h)” value of the first is 2.6-fold lower: 0.0372 µg/mL for the first, 0.0981 µg/mL for the second.

Compared with B3, B4 is 13-fold lower in “IC50, cytotoxic effect on Jurkat E6-1 cells (CellTiter-Glo, 72 h)” value: 0.0717 µg/mL for the first, 0.00571 µg/mL for the second.

B5 was tested, and the “IC50, cytotoxic effect on Jurkat E6-1 cells (CellTiter-Glo, 72 h)” value was 0.0896 µg/mL.

B1 and B2 are within 1.5-fold of each other in “IC50, cytotoxic effect on MSTO-211H cells (CellTiter-Glo, 72 h)” value: 0.127 µg/mL for the first, 0.177 µg/mL for the second.

First: B3
Second: B4
The “IC50, cytotoxic effect on MSTO-211H cells (CellTiter-Glo, 72 h)” value of the first is 2.1-fold higher: 0.255 µg/mL for the first, 0.123 µg/mL for the second.

In the case of B5, the “IC50, cytotoxic effect on MSTO-211H cells (CellTiter-Glo, 72 h)” value is reported as 0.22 µg/mL.

Compared with B1, B2 is 9.8-fold higher in “IC50, cytotoxic effect on Mia PaCa-2 cells (CellTiter-Glo, 72 h)” value: 0.097 µg/mL for the first, 0.951 µg/mL for the second.

Going from B3 to B4, the “IC50, cytotoxic effect on Mia PaCa-2 cells (CellTiter-Glo, 72 h)” value falls from 0.415 µg/mL to 0.139 µg/mL (3-fold).

For B5, the “IC50, cytotoxic effect on Mia PaCa-2 cells (CellTiter-Glo, 72 h)” value was 0.508 µg/mL.

First: B1
Second: B2
The “IC50, cytotoxic effect on Reh cells (CellTiter-Glo, 72 h)” value (“IC50, cytotoxic effect on Reh cells” below) of the first is 10-fold lower: 0.0159 µg/mL for the first, 0.163 µg/mL for the second.

Compared with B3, B4 is 8.1-fold lower in “IC50, cytotoxic effect on Reh cells” value: 0.196 µg/mL for the first, 0.0242 µg/mL for the second.

With B5 the “IC50, cytotoxic effect on Reh cells” value was 0.889 µg/mL.

Going from B1 to B3, the “eff. (efficiency %), cytotoxic effect on A172 cells” value falls from 98.2% to 90.8%.

First: B4
Second: B5
The “eff. (efficiency %), cytotoxic effect on A172 cells” value of the first is lower: 92.5% for the first, 93.2% for the second.

Compared with B1, B2 is higher in “eff. (efficiency %), cytotoxic effect on Jurkat E6-1 cells” value: 80.2% for the first, 90.7% for the second.

Going from B3 to B4, the “eff. (efficiency %), cytotoxic effect on Jurkat E6-1 cells” value rises from 87.1% to 98.9%.

In the case of B5, the “eff. (efficiency %), cytotoxic effect on Jurkat E6-1 cells” value is reported as 82%.

Compared with B1, B2 is higher in “eff. (efficiency %), cytotoxic effect on MSTO-211H cells” value: 97.5% for the first, 99.1% for the second.

First: B3
Second: B4
The “eff. (efficiency %), cytotoxic effect on MSTO-211H cells” value of the first is lower: 91% for the first, 98.5% for the second.

In the case of B5, the “eff. (efficiency %), cytotoxic effect on MSTO-211H cells” value is reported as 98.2%.

Compared with B1, B2 is lower in “eff. (efficiency %), cytotoxic effect on Mia PaCa-2 cells” value: 88.8% for the first, 53% for the second.

First: B3
Second: B4
The “eff. (efficiency %), cytotoxic effect on Mia PaCa-2 cells” value of the first is lower: 52.9% for the first, 81.7% for the second.

B5 was tested, and the “eff. (efficiency %), cytotoxic effect on Mia PaCa-2 cells” value was 86.3%.

Compared with B1, B2 is lower in “eff. (efficiency %), cytotoxic effect on Reh cells” value (shortened to “eff. (efficiency %) … on Reh cells”): 89.8% for the first, 77.4% for the second.

First: B3
Second: B4
The “eff. (efficiency %) … on Reh cells” value of the first is lower: 75.3% for the first, 98.8% for the second.

B5 was tested, and the “eff. (efficiency %) … on Reh cells” value was 98.6%.
